Test results as given in US7125658B2, “Small protein that interacts with a ribonucleotide reductase subunit and uses thereof” (The Trustees of Columbia University in the City of New York, priority 1998, dated 2006).

T1: Recombinant yeast Rnr1 protein (large subunit of ribonucleotide reductase) (yeast (Saccharomyces cerevisiae), UniProt P21524 1-888)
T1 construct: It is in monomer/dimer/tetramer equilibrium depending on dTTP; also called yeast R1 protein
T1 sequence (looked up): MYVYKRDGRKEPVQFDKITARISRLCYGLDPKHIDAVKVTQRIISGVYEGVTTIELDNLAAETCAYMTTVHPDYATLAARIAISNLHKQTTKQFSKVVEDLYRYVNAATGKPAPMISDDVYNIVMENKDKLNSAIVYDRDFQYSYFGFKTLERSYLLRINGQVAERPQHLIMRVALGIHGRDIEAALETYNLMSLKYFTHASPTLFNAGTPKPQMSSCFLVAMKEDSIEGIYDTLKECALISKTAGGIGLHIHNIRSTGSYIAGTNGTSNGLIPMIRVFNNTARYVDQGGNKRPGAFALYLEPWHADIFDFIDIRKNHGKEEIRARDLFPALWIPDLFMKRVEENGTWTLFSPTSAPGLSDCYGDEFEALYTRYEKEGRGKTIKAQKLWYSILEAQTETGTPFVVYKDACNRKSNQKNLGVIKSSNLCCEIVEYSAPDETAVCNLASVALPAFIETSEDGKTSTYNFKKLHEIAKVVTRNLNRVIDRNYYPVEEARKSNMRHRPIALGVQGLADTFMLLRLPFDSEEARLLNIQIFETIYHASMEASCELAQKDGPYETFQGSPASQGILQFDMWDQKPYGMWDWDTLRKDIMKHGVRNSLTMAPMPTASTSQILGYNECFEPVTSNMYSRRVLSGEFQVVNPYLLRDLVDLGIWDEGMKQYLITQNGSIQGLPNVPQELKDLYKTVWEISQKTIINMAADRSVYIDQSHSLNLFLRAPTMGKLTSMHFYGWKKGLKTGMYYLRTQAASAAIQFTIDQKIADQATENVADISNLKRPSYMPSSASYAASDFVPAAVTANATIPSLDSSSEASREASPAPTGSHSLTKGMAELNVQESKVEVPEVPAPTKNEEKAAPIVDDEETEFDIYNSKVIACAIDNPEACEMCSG

T2: yeast Rnr1p (Saccharomyces cerevisiae, UniProt P21524)
T2 construct: made in house; host or cells: E. coli BL21 (DE3), pET3a
T2 sequence (P21524 1-888): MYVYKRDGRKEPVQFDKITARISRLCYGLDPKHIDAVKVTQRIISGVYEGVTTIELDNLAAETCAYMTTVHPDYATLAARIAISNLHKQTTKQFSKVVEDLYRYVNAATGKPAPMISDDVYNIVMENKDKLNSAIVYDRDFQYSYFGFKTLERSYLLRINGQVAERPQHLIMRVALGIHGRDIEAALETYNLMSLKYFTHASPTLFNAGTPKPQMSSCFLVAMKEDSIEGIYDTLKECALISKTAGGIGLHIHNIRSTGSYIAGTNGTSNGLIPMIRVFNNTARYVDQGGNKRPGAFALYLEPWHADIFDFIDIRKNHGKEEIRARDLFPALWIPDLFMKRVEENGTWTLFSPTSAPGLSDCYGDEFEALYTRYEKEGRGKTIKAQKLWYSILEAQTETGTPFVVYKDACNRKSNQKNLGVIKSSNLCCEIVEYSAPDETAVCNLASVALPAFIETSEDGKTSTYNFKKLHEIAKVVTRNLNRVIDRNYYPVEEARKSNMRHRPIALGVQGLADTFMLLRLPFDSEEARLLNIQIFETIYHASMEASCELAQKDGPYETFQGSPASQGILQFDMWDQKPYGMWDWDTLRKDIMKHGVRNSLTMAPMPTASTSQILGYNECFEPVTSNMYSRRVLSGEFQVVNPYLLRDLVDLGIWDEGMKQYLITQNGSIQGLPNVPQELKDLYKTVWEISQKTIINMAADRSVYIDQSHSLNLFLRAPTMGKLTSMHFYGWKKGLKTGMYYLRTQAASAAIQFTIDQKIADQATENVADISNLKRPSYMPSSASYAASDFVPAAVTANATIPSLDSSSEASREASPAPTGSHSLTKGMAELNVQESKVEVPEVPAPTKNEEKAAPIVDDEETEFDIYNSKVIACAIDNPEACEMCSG


How the values were obtained:
[1] = target: T1, Recombinant yeast Rnr1 protein (large …); test: BIAcore SPR, Sml1p immobilized, Rnr1p injected (0.1-2.5 µM); equilibrium response fitted to one site binding model; equilibrium response fit (GraphPad Prism), directly determined
Procedure: In this figure, the bulk effect response of around 60 RU has been subtracted.
(§1) BIAcore biosensor analysis. The interaction between Sml1p and either yeast Rnr1p or mouse R1 protein was studied by biosensor analysis using the BIAcore method (Biacore AB). The Sml1 protein was prepared in 10 mM sodium acetate, pH 5.2, at a concentration of 0.44 mg/ml; it was then immobilized on the dextran layer of the sensor chip as described previously for the mouse R2 protein (17). The ligand proteins were equilibrated with running buffer (10 mM Hepes-KOH, pH 7.4, 200 mM potassium acetate, 1 mM EDTA, 5 mM magnesium acetate and 0.05% Surfactant P20 (BIAcore). The interactions were studied at a constant temperature of 22° C. and a constant flow of 5 μl/min. Kinetics for the interaction of Sml1p with yeast Rnr1p was determined by allowing the immobilized Sml1p to interact with increasing concentrations of Rnr1p (18). The resonance unit (RU) is proportional to the mass, and 1 RU corresponds to a surface concentration of 1 pg of protein/mm² of the 100 nm thick dextran layer (19).
In control experiments, where the same series of Rnr1p solutions passed a sensor chip without immobilized Sml1p, a "bulk effect" gave a response of only about 60 RU. […] Calculating the equilibrium dissociation constant from these rate constants gave a K_0 of about 0.25 µM, which is close to the directly determined K_0.

[2] = target: T2, yeast Rnr1p; test: BIAcore biosensor analysis, immobilized Sml1p and yeast Rnr1p; assay type: binding
Procedure: as §1, with “protein/mm^2” for “protein/mm²”
Kinetic studies of the interaction between the Rnr1 and Sml1 proteins using a biosensor technique. To obtain a quantitative description of the Rnr1p and Sml1p interaction, we immobilized the Sml1 protein to the dextran layer of a sensor chip, and then injected a series of solutions containing increasing concentrations of Rnr1p to the same sensor chip. The immobilization of Sml1p at a concentration of 0.44 mg/ml gave an increase of 91 resonance units (RU), which correspond to 91 pg/mm^2. With a surface of 0.8 mm 2, 91 RU corresponds to a total of 72.8 pg of bound Sml1p, which can be compared with the total injected amount of 15.4 μg. This low degree of attachment (only 0.0005%) makes it unlikely that the protein is attached to multiple binding sites.
In control experiments, where the same series of Rnr1p solutions passed a sensor chip without immobilized Sml1p, a “bulk effect” gave a response of only about 60 RU. The same background value of about 60 RU was observed when bovine serum albumin or Rnr2p/Rnr4p heterodimer was injected at a concentration of 0.1 mg/ml (data not shown). In FIG. 1B, the response at equilibrium is plotted against the concentration of injected Rnr1p. […] These values correspond to 691 pg/mm^2 or a total of 553 pg or 5.5 fmol Rnr1p monomer bound to about 6.2 fmol immobilized Sml1p, i.e. nearly one Rnr1p monomer bound per molecule of immobilized Sml1p. […] Calculating the equilibrium dissociation constant from these rate constants gave a K0 of about 0.25 μM, which is close to the directly determined K0.

[3] = BIAevaluation software, lower curves of FIG. 12A

Molecule | Kd [1] | association rate constant [2, 3] | dissociation rate constant [2, 3] | maximal binding ([2]; Rnr1p bound to immobilized Sml1p (91 RU)) | Kd ([2]; immobilized Sml1p, mobile phase Rnr1p, 22° C., response at equilibrium fitted to one site binding model, read-out: equilibrium dissociation constant (KD))
Recombinant yeast Sml1 protein (other, Immobilized on the BIAcore chip in the biosensor experiments; also called YML058W product) MQNSQDYFYAQNRCQQQQAPSTLRTVTMAEFRRVPLPPMAEVPMLSTQNSMGSSASASASSLEMWEKDLEERLNSIDHDMNNNKFGSGELKSMFNQGKVEEMDF | 410 nM | – | – | – | –
Sml1p: 104 amino acid yeast protein encoded by YML058w (SML1) that binds Rnr1 and inhibits ribonucleotide reductase; recombinant, expressed in E. coli (protein) MQNSQDYFYAQNRCQQQQAPSTLRTVTMAEFRRVPLPPMAEVPMLSTQNSMGSSASASASSLEMWEKDLEERLNSIDHDMNNNKFGSGELKSMFNQGKVEEMDF | – | about 153000 M^1s^−1 | 0.04 s⁻¹ | 691 RU | 400 nM
